Experimental data taken from US20230295310A1 (ABCELLERA BIOLOGICS, published 2023).
Positions count from the first letter of the chain named.

B1: mAb 114 (antibody, V domains shown)
VH: EVQLVESGGGLVKTGGSLRLSCVASGFSFKKAWMNWVRQAPGKGLEWVGRIKRNTDGGPADYAAPVKGRFTLSRDDSKKTLYLQMNSLKTEDTAVYYCTTLDSSSWYVGYYYMDVWGKGTTVTVSS
VL: DIQMTQSPSSVSASVGDRVIITCRASQDINNWLAWYLQRPGKAPKLLIYAASSLQSGVPSRFSGSGSGTDFTLTIGSLQPEDFATYYCQQAHSLPITFGQGTRLEIQ
B2: mAb 115 (antibody, V domains shown)
VH: B1 VH with L18H, T55S, P59T, A60T, T71I, K79N
VL: B1 VL with I20T, L37Q, R39K, L46I, A50T, S53N, G76S, Y87F, S93G, Q107K
B3: mAb 116 (antibody, V domains shown)
VH: B1 VH with T55S, P59T, A60T, K79N
VL: B1 VL with S9F, I20T, L37Q, R39K, L46I, A50T, G76S, Q107K
B4: mAb 117 (antibody, V domains shown)
VH: B1 VH with P59T, A60T, K79N, W106L
VL: B1 VL with I20T, L37Q, R39K, A50T, G76S, Q107K
B5: mAb 120 (antibody, V domains shown)
VH: B1 VH with P59T, Y82F, W106Y
VL: B1 VL with I20T, L37Q, R39K, A50T, Q107K
B6: mAb 122 (antibody, V domains shown)
VH: B1 VH with P59T, W106R
VL: B1 VL with L37Q, R39K, A43V, A50T, Q107K
B7: mAb 123 (antibody, V domains shown)
VH: DVQLVESGGGTVKTGGSLRLSCVASGFSFKKAWMNWVRQAPGKGLEWVGRIKKNSDDGTADYAAPVKGRFTISRDDSKRTLFLQMNSLQTEDTAVYYCTTLDSSSWFVGYYYMDVWGKGTTVTVSS
VL: B1 VL with L37Q, R39K, A50T, G68V, T69S, G76D, Q107K
B8: mAb 125 (antibody, V domains shown)
VH: B1 VH with P59T, W106R
VL: B1 VL with L37Q, R39K, A43V, A50T, S77T, E105D, Q107K
B9: mAb 131 (antibody, V domains shown)
VH: B1 VH with L20I, P59T, A60I, T71S, K79N, Y82F, Y97F, W106Y
VL: B1 VL with Q3H, I20T, L37Q, R39K, A50T, G76S, Y87F, E105G, Q107K
B10: mAb 132 (antibody, V domains shown)
VH: B7 VH with D57G, R79K, F82Y, F107Y
VL: B1 VL with L37Q, R39K, K42I, A50T, G68V, T69S, Q107K
B11: mAb 133 (antibody, V domains shown)
VH: B1 VH with N35S, P59T, Y82F, T93S, T99V, W106Y
VL: B1 VL with I20S, L37Q, R39K, A50T, Q107K
B12: mAb 155 (antibody, V domains shown)
VH: B1 VH with P59T, Y82F, W106Y
VL: B1 VL with L37Q, R39K, A50T, T97S, E105D, Q107K
B13: mAb 156 (antibody, V domains shown)
VH: B1 VH with P59T, Y82F, W106Y
VL: B1 VL with L37Q, R39K, P40A, A50T, Q107K
B14: mAb 157 (antibody, V domains shown)
VH: B1 VH with N54T, T55A, P59A, A60T, K79N
VL: B1 VL with Q3H, S7A, I20T, I21F, L37Q, R39K, A50T, G76S, E105G, Q107K
B15: mAb 163 (antibody, V domains shown)
VH: B1 VH with A40V, P59T, Y82F, W106Y
VL: B1 VL with L37Q, R39K, A50T, Q107K
B16: mAb 164 (antibody, V domains shown)
VH: B1 VH with P59T, Y82F, W106Y
VL: B1 VL with I20T, N30K, L37Q, R39K, A50T, Q107K
B17: mAb 165 (antibody, V domains shown)
VH: B1 VH with P59T, K79R, W106R
VL: B1 VL with L37Q, R39K, A43V, A50T, Q107K
B18: mAb 166 (antibody, V domains shown)
VH: B1 VH with K43R, P59T, A60T, K79N, T80M, W106L
VL: B1 VL with I20T, L37Q, R39K, A50T, G76S, Y87F, Q107T
B19: mAb 169 (antibody, V domains shown)
VH: B1 VH with P59T, Y82F, W106Y
VL: B1 VL with L37Q, R39K, A50T, T72I, Q107K
B20: mAb 128 (antibody, V domains shown)
VH: EVQLVESGGGLVQPGRSLRLSCAASGFTFDDYTMHWVRQAPGKGLEWVSGISWNSGSIGYADSVKGRFTISRDNAKNSLYLQMNSLRAEDTALYYCAKDSSGYGYYYYYSMDVWGKGTTVTVSS
VL: EIVMTQSPATLSVSPGERATLSCRASQSVSSNLAWYQQKPGQAPRLLIYGASTRATGIPARFSGSGSGTEFTLTISSLQSEDFAVYYCQLYYNWPHFGQGTRLAIK

Each binder was assayed against T1, human CD3 expressed on cells (human, UniProt P07766 23-207; P04234 22-171; P09693 23-182) (assay: flow cytometry, 25 nM).
T1 construct: whole, on cells; CD3 complex on Jurkat cells and on human primary T cells
How it was run: (§1)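 Flow cytometric binding was measured after cells were incubated with antibody (25 nM, PBS+2% FBS) at 4° C for 30 minutes. Signals were normalized to isotype to yield FOI, with ≥10 scored positive.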

T1 sequence (P07766 23-207, chain 1 of 3): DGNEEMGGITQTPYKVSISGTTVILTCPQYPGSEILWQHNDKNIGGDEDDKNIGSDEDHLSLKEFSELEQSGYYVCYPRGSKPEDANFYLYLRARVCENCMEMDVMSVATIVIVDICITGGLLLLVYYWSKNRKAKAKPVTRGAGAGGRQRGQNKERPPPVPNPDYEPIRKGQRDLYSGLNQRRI
T1 sequence (P04234 22-171, chain 2 of 3): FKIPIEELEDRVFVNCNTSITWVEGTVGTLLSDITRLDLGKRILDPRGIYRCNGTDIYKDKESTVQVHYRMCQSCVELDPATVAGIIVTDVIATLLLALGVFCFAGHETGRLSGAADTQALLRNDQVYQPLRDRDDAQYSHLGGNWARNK
T1 sequence (P09693 23-182, chain 3 of 3): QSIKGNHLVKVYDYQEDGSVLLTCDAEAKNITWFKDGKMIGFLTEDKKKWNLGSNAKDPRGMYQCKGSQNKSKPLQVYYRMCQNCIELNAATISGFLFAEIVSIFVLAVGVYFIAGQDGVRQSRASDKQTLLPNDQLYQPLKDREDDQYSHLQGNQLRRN

Binder	Human primary T Cell Binding (FOI)	Jurkat Cell Binding (FOI)
B1	179 FOI	167 FOI
B2	174 FOI	157 FOI
B3	174 FOI	159 FOI
B4	170 FOI	155 FOI
B5	167 FOI	168 FOI
B6	174 FOI	199 FOI
B7	171 FOI	159 FOI
B8	180 FOI	185 FOI
B9	171 FOI	155 FOI
B10	164 FOI	157 FOI
B11	169 FOI	161 FOI
B12	274 FOI	163 FOI
B13	243 FOI	171 FOI
B14	265 FOI	163 FOI
B15	278 FOI	118 FOI
B16	237 FOI	137 FOI
B17	241 FOI	154 FOI
B18	266 FOI	159 FOI
B19	264 FOI	173 FOI
B20	101 FOI	97.1 FOI

What follows are binders tested against T2, cynomolgus monkey CD3 expressed on primary T cells (cynomolgus monkey, UniProt Q95LI5 22-198; Q95LI8 22-171; Q95LI7 23-181) (assay: flow cytometry, 25 nM, cyno primary T cells).
T2 construct: whole, on cells; CD3 complex on purified cynomolgus monkey T cells; also called cyno CD3
How it was run: as §1

T2 sequence (Q95LI5 22-198, chain 1 of 3): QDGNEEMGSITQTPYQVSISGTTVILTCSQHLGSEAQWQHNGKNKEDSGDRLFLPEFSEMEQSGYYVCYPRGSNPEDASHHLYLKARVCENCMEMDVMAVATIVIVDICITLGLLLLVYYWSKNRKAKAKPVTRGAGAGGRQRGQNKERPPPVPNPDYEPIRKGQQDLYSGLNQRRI
T2 sequence (Q95LI8 22-171, chain 2 of 3): as the sequence (P04234 22-171, chain 2 of 3) above, with I5V, N15K, I20V, S32T, D33N, I34N, T64A, S74N, V83L, H141R counted along it
T2 sequence (Q95LI7 23-181, chain 3 of 3): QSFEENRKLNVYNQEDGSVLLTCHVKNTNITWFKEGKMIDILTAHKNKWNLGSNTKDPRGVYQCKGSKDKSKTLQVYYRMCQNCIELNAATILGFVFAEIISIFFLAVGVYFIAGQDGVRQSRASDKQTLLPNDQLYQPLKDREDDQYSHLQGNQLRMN

Binder	binding result
B1	no binding (tested: FOI >=10 = positive)
B2	no binding (tested: FOI >=10 = positive)
B3	no binding (tested: FOI >=10 = positive)
B4	no binding (tested: FOI >=10 = positive)
B5	no binding (tested: FOI >=10 = positive)
B6	no binding (tested: FOI >=10 = positive)
B7	no binding (tested: FOI >=10 = positive)
B8	no binding (tested: FOI >=10 = positive)
B9	no binding (tested: FOI >=10 = positive)
B10	no binding (tested: FOI >=10 = positive)
B11	no binding (tested: FOI >=10 = positive)
B12	no binding (tested: FOI >=10 = positive)
B13	no binding (tested: FOI >=10 = positive)
B14	no binding (tested: FOI >=10 = positive)
B15	no binding (tested: FOI >=10 = positive)
B16	no binding (tested: FOI >=10 = positive)
B17	no binding (tested: FOI >=10 = positive)
B18	no binding (tested: FOI >=10 = positive)
B19	no binding (tested: FOI >=10 = positive)
B20	no binding (tested: FOI >=10 = positive)
